Substrate in the data set: NCCc1ccc(O)c(O)c1
Description: cells, lysate or membranes. The conditions noted are these: other: HEK293S cells; 14C-DA 0.3–60 μM; s.e.m.; pH 7.4.

Broadly, the Km is the concentration of substrate that gives half-maximal velocity.

B1: dDATwt (Drosophila melanogaster) (protein)
chain: MSPTGHISKSKTPTPHDNDNNSISDERETWSGKVDFLLSVIGFAVDLANVWRFPYLCYKNGGGAFLVPYGIMLVVGGIPLFYMELALGQHNRKGAITCWGRLVPLFKGIGYAVVLIAFYVDFYYNVIIAWSLRFFFASFTNSLPWTSCNNIWNTPNCRPFESQNASRVPVIGNYSDLYAMGNQSLLYNETYMNGSSLDTSAVGHVEGFQSAASEYFNRYILELNRSEGIHDLGAIKWDMALCLLIVYLICYFSLWKGISTSGKVVWFTALFPYAVLLILLIRGLTLPGSFLGIQYYLTPNFSAIYKAEVWVDAATQVFFSLGPGFGVLLAYASYNKYHNNVYKDALLTSFINSATSFIAGFVIFSVLGYMAHTLGVRIEDVATEGPGLVFVVYPAAIATMPASTFWALIFFMMLLTLGLDSSFGGSEAIITALSDEFPKIKRNRELFVAGLFSLYFVVGLASCTQGGFYFFHLLDRYAAGYSILVAVFFEAIAVSWIYGTNRFSEDIRDMIGFPPGRYWQVCWRFVAPIFLLFITVYGLIGYEPLTYADYVYPSWANALGWCIAGSSVVMIPAVAIFKLLSTPGSLRQRFTILTTPWRDQQSMAMVLNGVTTEVTVVRLTDTETAKEPVDV
With B1, the Michaelis-Menten constant (Km) came out at 2.1 ± 0.7 µM.
